Results as given in paper PMC8620955.
Where “and” joins values, the source holds several entries; their conditions need not be identical. Equal entries are not always repeated.

Columns and labels:
HIS-tagged FcγR1A = HIS-tagged FcγR1A (UniProt P12314); test: SPR; Biacore T200; His-tagged FcγR1A captured by an anti-HIS antibody on a CM5 chip; antibody as analyte, single-cycle kinetics, 2.5 to 40 nM, 30 min dissociation; HBS-T pH 7.4; bivalent binding model
HIS-tagged FcγR3A = HIS-tagged FcγR3A (UniProt P08637); test: SPR; Biacore T200; His-tagged FcγR2B or FcγR3A captured by an anti-HIS antibody on a CM5 chip; antibody as analyte, single-cycle titration, 25 to 400 nM, 30 min dissociation; HBS-T pH 7.4; KD from fits to the responses at equilibrium
HIS-tagged FcγR2B = HIS-tagged FcγR2B (UniProt P31994); test: as above
[1] = molecular target: HIS-tagged HER2 (Homo sapiens (assumed; trastuzumab target, species not stated)) (UniProt P04626); test: SPR; Biacore T200; His-tagged HER2 (4 nM) captured by an anti-HIS antibody on a CM5 chip; antibody as analyte, single-cycle kinetics, 2-fold dilutions 0.5–8 nM, 20 µL/min for 2 min, 60 min dissociation; HBS-T (10 mM HEPES, 150 mM NaCl, 0.05% Tween 20, pH 7.4); bivalent binding model; duplicate

Substance	Kd (HIS-tagged FcγR1A)	kon (HIS-tagged FcγR1A)	Kd (HIS-tagged FcγR3A)	Kd (HIS-tagged FcγR2B)	Kd [1]	koff (HIS-tagged FcγR1A)
Trastuzumab Q178N (antibody)	2.6 nM and 2.5 nM	370000 M⁻¹ s⁻¹	239 nM and 217 nM	485 nM		
Trastuzumab L115N (antibody)	6.4 nM and 3.7 nM		301 nM and 394 nM	269 nM and 338 nM	1.13 nM and 1.16 nM	
HEK Trastuzumab (antibody)	9.9 nM	110000 M⁻¹ s⁻¹	433 nM	686 nM		0.001 s⁻¹
Trastuzumab T198N (antibody)	3.8 nM	240000 M⁻¹ s⁻¹		666 nM		0.00088 s⁻¹ and 0.0009 s⁻¹
Herceptin (antibody)	4.7 nM		267 nM	666 nM		
Trastuzumab L182N (antibody)	8.2 nM and 8.1 nM					0.0015 s⁻¹
Trastuzumab L177N (antibody)	5.6 nM	250000 M⁻¹ s⁻¹ and 260000 M⁻¹ s⁻¹	535 nM and 551 nM	1280 nM and 992 nM		0.0014 s⁻¹ and 0.0015 s⁻¹
Trastuzumab A121N (antibody)	4.8 nM	170000 M⁻¹ s⁻¹ and 200000 M⁻¹ s⁻¹	295 nM and 268 nM	3140 nM and 3740 nM		0.00083 s⁻¹ and 0.00098 s⁻¹
Trastuzumab Q160N (antibody)	6.5 nM and 6.7 nM	120000 M⁻¹ s⁻¹ and 110000 M⁻¹ s⁻¹	596 nM and 535 nM	143 nM		0.00076 s⁻¹
